Laboratory results published in article PMC10249356 (Biochemistry, 2023).

Key:
[1] = tested on: T1, C/C(=C\C(=O)O)C(=O)SCCNC(=O)CCNC(=O)[C@H](O)C(C)(C)COP(=O)(O)OP(=O)(O)OC[C@H]1O[C@@H](n2cnc3c(N)ncnc32)[C@H](O)[C@@H]1OP(=O)(O)O; assay: purified protein; type: biochemical, Clostridium kluyveri; details: 200 mM HEPES pH 7.5, 400 µM NADPH, 400 nM enzyme, 30 °C, apparent KM
T1 construct: His-tagged, expressed in E. coli BL21(DE3), HisTrap purified (gel filtration for crystals); homodimer

[2] = tested on: T2, CC(C)(COP(=O)(O)OP(=O)(O)OC[C@H]1O[C@@H](n2cnc3c(N)ncnc32)[C@H](O)[C@@H]1OP(=O)(O)O)[C@@H](O)C(=O)NCCC(=O)NCCSC(=O)CCC(=O)O; assay: purified protein; type: biochemical, Clostridium kluyveri; details: 200 mM HEPES pH 7.5, 400 µM NADPH, 400 nM enzyme, 30 °C, apparent KM
T2 construct: His-tagged, expressed in E. coli BL21(DE3), HisTrap purified (gel filtration for crystals); homodimer

CkSucD = biological target: T3, CkSucD (Clostridium kluyveri, UniProt P38947); assay: X-ray crystal structure, […] Å; type: binding
T3 construct: gene sucD; His-tagged, expressed in E. coli BL21(DE3), HisTrap purified (gel filtration for crystals); homodimer
T3 sequence (P38947 1-453): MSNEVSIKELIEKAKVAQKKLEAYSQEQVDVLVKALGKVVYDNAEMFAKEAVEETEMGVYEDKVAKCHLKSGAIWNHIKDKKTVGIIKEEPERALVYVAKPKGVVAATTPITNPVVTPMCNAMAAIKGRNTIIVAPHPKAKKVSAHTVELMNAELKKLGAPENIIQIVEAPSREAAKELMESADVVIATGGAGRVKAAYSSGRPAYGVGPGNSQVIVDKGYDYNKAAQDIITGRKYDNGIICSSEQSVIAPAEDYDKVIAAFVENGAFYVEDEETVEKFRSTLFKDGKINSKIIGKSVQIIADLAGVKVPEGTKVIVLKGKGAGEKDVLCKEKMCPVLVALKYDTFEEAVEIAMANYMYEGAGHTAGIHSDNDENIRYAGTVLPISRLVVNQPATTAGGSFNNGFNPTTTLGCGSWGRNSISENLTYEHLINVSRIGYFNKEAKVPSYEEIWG

[3] = tested on: CC(C)(COP(=O)(O)OP(=O)(O)OC[C@H]1O[C@@H](n2cnc3c(N)ncnc32)[C@H](O)[C@@H]1OP(=O)(O)O)[C@@H](O)C(=O)NCCC(=O)NCCSC(=O)CCCO; assay: purified protein; details: 200 mM HEPES pH 7.5, 400 µM NADPH, 400 nM enzyme, 30 °C, apparent KM
purified protein [4] = substrate: C/C(=C\C(=O)O)C(=O)SCCNC(=O)CCNC(=O)[C@H](O)C(C)(C)COP(=O)(O)OP(=O)(O)OC[C@H]1O[C@@H](n2cnc3c(N)ncnc32)[C@H](O)[C@@H]1OP(=O)(O)O; assay: purified protein; details: 200 mM HEPES pH 7.5, 400 µM NADPH, 400 nM enzyme, 30 °C, apparent KM
purified protein [5] = substrate: C/C(=C\C(=O)SCCNC(=O)CCNC(=O)[C@H](O)C(C)(C)COP(=O)(O)OP(=O)(O)OC[C@H]1O[C@@H](n2cnc3c(N)ncnc32)[C@H](O)[C@@H]1OP(=O)(O)O)C(=O)O; assay: purified protein; details: 200 mM HEPES pH 7.5, 400 µM NADPH, 400 nM enzyme, 30 °C, apparent KM
purified protein [6] = substrate: C/C=C/C(=O)SCCNC(=O)CCNC(=O)[C@H](O)C(C)(C)COP(=O)(O)OP(=O)(O)OC[C@H]1O[C@@H](n2cnc3c(N)ncnc32)[C@H](O)[C@@H]1OP(=O)(O)O; assay: purified protein; details: 200 mM HEPES pH 7.5, 400 µM NADPH, 400 nM enzyme, 30 °C, apparent KM
purified protein [7] = substrate: CC(C)(COP(=O)(O)OP(=O)(O)OC[C@H]1O[C@@H](n2cnc3c(N)ncnc32)[C@H](O)[C@@H]1OP(=O)(O)O)[C@@H](O)C(=O)NCCC(=O)NCCSC(=O)CCC(=O)O; assay: purified protein; details: 200 mM HEPES pH 7.5, 400 µM NADPH, 400 nM enzyme, 30 °C, apparent KM
purified protein [8] = substrate: CCC(=O)SCCNC(=O)CCNC(=O)[C@H](O)C(C)(C)COP(=O)(O)OP(=O)(O)OC[C@H]1O[C@@H](n2cnc3c(N)ncnc32)[C@H](O)[C@@H]1OP(=O)(O)O; assay: purified protein; details: 200 mM HEPES pH 7.5, 400 µM NADPH, 400 nM enzyme, 30 °C, apparent KM
[9] = biological target: the molecule itself; assay: crystal structure; X-ray structures of CkSucD without ligands (8CEI), with NADPH (8CEK) and with mesaconyl-C1-CoA (8CEJ); sitting-drop vapor diffusion at 288 K
purified protein [10] = substrate: C/C(=C\C(=O)O)C(=O)SCCNC(=O)CCNC(=O)[C@H](O)C(C)(C)COP(=O)(O)OP(=O)(O)OC[C@H]1O[C@@H](n2cnc3c(N)ncnc32)[C@H](O)[C@@H]1OP(=O)(O)O; assay: purified protein; type: biochemical, Clostridioides difficile; details: 200 mM HEPES pH 7.5, 400 µM NADPH, 30 °C, apparent KM
purified protein [11] = substrate: CC(C)(COP(=O)(O)OP(=O)(O)OC[C@H]1O[C@@H](n2cnc3c(N)ncnc32)[C@H](O)[C@@H]1OP(=O)(O)O)[C@@H](O)C(=O)NCCC(=O)NCCSC(=O)CCC(=O)O; assay: purified protein; type: biochemical, Clostridioides difficile; details: 200 mM HEPES pH 7.5, 400 µM NADPH, 30 °C, apparent KM

## CkSucD (Clostridium kluyveri DSM 555; K70R)
[1]
  Km: 86.1 ± 15.1 µM
  kcat: 0.1 ± 0.01 s⁻¹
[2]
  Km: 19.9 ± 2.3 µM
  kcat: 0.9 ± 0.03 s⁻¹

## NC(=O)C1=CN([C@@H]2O[C@H](COP(=O)(O)OP(=O)(O)OC[C@H]3O[C@@H](n4cnc5c(N)ncnc54)[C@H](OP(=O)(O)O)[C@@H]3O)[C@@H](O)[C@H]2O)C=CC1 [NADPH]
CkSucD; 5 mM NADPH, pH 6.5 (abstract calls the ligand NADP+)
  X-ray crystal structure, 2.1 Å: 8CEK (with NADPH)

## C/C(=C\C(=O)O)C(=O)SCCNC(=O)CCNC(=O)[C@H](O)C(C)(C)COP(=O)(O)OP(=O)(O)OC[C@H]1O[C@@H](n2cnc3c(N)ncnc32)[C@H](O)[C@@H]1OP(=O)(O)O [mesaconyl-C1-CoA]
CkSucD; 5 mM ligand, pH 7.5, active site, intact ligand in chain C, covalent mesaconyl-Cys242 in chains A, B, D
  X-ray crystal structure, 2.1 Å: mesaconyl-C1 CoA bound state (pdb 8CEJ

## CkSucD (Clostridium kluyveri DSM 555)
[3]
  Km: 48.9 ± 10.8 µM
  kcat: 0.2 ± 0.01 s⁻¹

B1: Succinyl-CoA reductase (SucD) from Clostridium kluyveri (enzyme)
chain: MSNEVSIKELIEKAKVAQKKLEAYSQEQVDVLVKALGKVVYDNAEMFAKEAVEETEMGVYEDKVAKCHLKSGAIWNHIKDKKTVGIIKEEPERALVYVAKPKGVVAATTPITNPVVTPMCNAMAAIKGRNTIIVAPHPKAKKVSAHTVELMNAELKKLGAPENIIQIVEAPSREAAKELMESADVVIATGGAGRVKAAYSSGRPAYGVGPGNSQVIVDKGYDYNKAAQDIITGRKYDNGIICSSEQSVIAPAEDYDKVIAAFVENGAFYVEDEETVEKFRSTLFKDGKINSKIIGKSVQIIADLAGVKVPEGTKVIVLKGKGAGEKDVLCKEKMCPVLVALKYDTFEEAVEIAMANYMYEGAGHTAGIHSDNDENIRYAGTVLPISRLVVNQPATTAGGSFNNGFNPTTTLGCGSWGRNSISENLTYEHLINVSRIGYFNKEAKVPSYEEIWG
notes: Succinyl-CoA reductase (SucD) of Clostridium kluyveri, UniProt P38947; In PDB 8CEJ Cys242 carries a mesaconyl-cysteine intermediate in subunits A, B and D; also called CkSucD; source: E. coli BL21 DE3, purified (HisTrap FF, desalting, size exclusion chromatography on Superdex 200)
Purified protein [4]
  Km: 28.5 ± 4.7 µM
  kcat: 1.6 ± 0.07 s⁻¹
Purified protein [5]
  Km: 25.7 ± 6.8 µM
  kcat: 0.2 ± 0.02 s⁻¹
Purified protein [6]
  Km: 332.6 ± 54.8 µM
  kcat: 0.3 ± 0.03 s⁻¹
Purified protein [7]
  Km: 22.6 ± 4.9 µM
  kcat: 7.8 ± 0.43 s⁻¹
Purified protein [8]
  Km: 145.2 ± 144 µM
  kcat: 0.1 ± 0.04 s⁻¹
[9]
  stoichiometry N: 2

B2: CdSucD (Clostridioides difficile R20291) (protein)
chain: MEKAVENFEDLSKEYINGYIERARKAQREFECYTQEQVDKIVKIVGKVVYYNAEYLAKLAVEETGMGVYEDKVAKNKSKAKVIYNNLKDKKSVGIIDIDRETGITKVAKPVGVVAAITPCTNPIVTPMSNAMFALKGRNAIIITPHHKAIGCSTKTVEMINEELEKIGAPENLIQILDQQSRENTRNLISSADVVIATGGMGMVKAAYSSGKPALGVGAGNVQCIIDRDVDIKEAVPKIIAGRIFDNGIICSGEQSVIVAEEMFDKIMDEFKNNKGFIVRDKVQKEAFRNAMFVNKSMNKDAVGQSVHTIAKIAGVEIPEDTKIIVIEADGPGEEDIIAKEKMCPVISAYKYKSFEEGVAIAKANLNVEGKGHSVSIHSNTVKNIEYAGENIEVSRFVINQCCATSAGGSFFNGLAPTNTLGCGSWGNNSISENLDYKHLINISRIAYYMPENEVPTDEELWG
notes: His-tagged, expressed in E. coli BL21(DE3), HisTrap purified
Purified protein [10]
  Km: 38.3 ± 14.9 µM
  kcat: 0.65 ± 0.08 s⁻¹
Purified protein [11]
  Km: 213.8 ± 49.4 µM
  kcat: 28.7 ± 4.1 s⁻¹
